Measurements as given in patent US20070207960A1 (published 2007).
Each block holds one binder with its values, some of them ahead of it.

Key:
[1] = molecular target: T1, plasma-derived human FVII (Enzyme Research Labs) (human, UniProt P08709 61-466); assay: surface plasmon resonance (BIAcore); sTF captured by immobilized anti-TF antibody, FVII injected
T1 construct: mature; also called pdFVII; Standard FVII
T1 sequence (looked up): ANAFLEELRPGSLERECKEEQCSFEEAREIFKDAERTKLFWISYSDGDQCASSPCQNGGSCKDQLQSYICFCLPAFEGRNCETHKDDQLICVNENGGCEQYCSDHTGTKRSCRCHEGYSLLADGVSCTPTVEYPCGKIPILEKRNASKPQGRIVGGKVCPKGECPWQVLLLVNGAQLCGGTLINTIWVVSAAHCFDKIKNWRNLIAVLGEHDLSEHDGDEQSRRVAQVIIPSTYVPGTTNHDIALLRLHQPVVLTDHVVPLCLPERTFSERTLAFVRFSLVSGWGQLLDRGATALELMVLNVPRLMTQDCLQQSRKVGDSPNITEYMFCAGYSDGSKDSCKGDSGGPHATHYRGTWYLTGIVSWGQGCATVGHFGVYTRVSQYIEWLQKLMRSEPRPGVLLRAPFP
Source text: An anti-TF antibody was immobilized on the BIAcore flow cell at high density and subsequently reacted with recombinant sTF. […] Data from reference cells containing the same amount of anti-TF antibody but no sTF were subtracted to correct for non-specific binding. […]

[2] = molecular target: T2, monoclonal antibody 231-7; assay: competitive ELISA; rFVIIa competes with biotinylated plasma-derived FVII for adsorbed MoAb 231-7
T2 construct: Conformation-sensitive antibody to the FVII EGF-1 domain; also called MoAb231-7
Method: Following four washes with TBS-T w/o BSA containing 1 M NaCl, 100 μl streptavidin-alkaline phosphatase (1:25,000 dilution in TBS-T+BSA) was added for 1 hr, RT. After an additional four washes with TBS-T w/o BSA containing 1M NaCl, the colourimetric reaction was developed with 100 μl of 1 mg/ml p-nitrophenylphosphate in diethanolamine buffer (10% diethanolamine, 0.5 mM MgCl₂, pH 9.8). The reaction was stopped after 60 minutes by the addition of 25 μl of 0.5M EDTA to each well.

Kd [1]: 29 nM
B1: recombinant soluble human tissue factor (receptor, UniProt P13726 33-251, looked up)
chain: SGTTNTVAAYNLTWKSTNFKTILEWEPKPVNQVYTVQISTKSGDWKSKCFYTTDTECDLTDEIVKDVKQTYLARVFSYPAGNVESTGSAGEPLYENSPEFTPYLETNLGQPTIQSFEQVGTKVNVTVEDERTLVRRNNTFLSLRDVFGKDLIYTLYYWKSSSSGKKTAKTNTNEFLIDVDKGENYCFSVQAVIPSRTVNRKSTDSPVECMGQEKGEFRE
notes: extracellular domain; It was captured on the BIAcore chip by an immobilized anti-TF antibody; also called sTF; soluble human TF

Relative Increase in Affinity (relative to rFVIIa (wt)) [2]: 1.4 fold
B2: rFVIIa(wt)-FFR (enzyme, human)
chain 1: ANAFLEELRPGSLERECKEEQCSFEEAREIFKDAERTKLFWISYSDGDQCASSPCQNGGSCKDQLQSYICFCLPAFEGRNCETHKDDQLICVNENGGCEQYCSDHTGTKRSCRCHEGYSLLADGVSCTPTVEYPCGKIPILEKRNASKPQGR
chain 2: IVGGKVCPKGECPWQVLLLVNGAQLCGGTLINTIWVVSAAHCFDKIKNWRNLIAVLGEHDLSEHDGDEQSRRVAQVIIPSTYVPGTTNHDIALLRLHQPVVLTDHVVPLCLPERTFSERTLAFVRFSLVSGWGQLLDRGATALELMVLNVPRLMTQDCLQQSRKVGDSPNITEYMFCAGYSDGSKDSCKGDSGGPHATHYRGTWYLTGIVSWGQGCATVGHFGVYTRVSQYIEWLQKLMRSEPRPGVLLRAPFP
modifications: active site covalently modified with the peptide chloromethylketone FFRck
notes: range 1-152;range 153-406; also called rFVIIa(wt)-FFRck; rFVIIai(wt)

Relative Increase in Affinity (relative to rFVIIa (wt)) [2]: 2.8 fold
B3: rFVIIa(wt)-DEGR (enzyme, human)
chain 1: B2 chain 1
chain 2: B2 chain 2
modifications: active site covalently modified with the peptide chloromethylketone DEGRck
notes: range 1-152;range 153-406; also called rFVIIa(wt)-DEGRck; rFVIIai(wt)
